# Assay results as given in article PMC10653854.
# Tests used:
# [1] = biological target: Zika virus (ZIKV) soluble E ectodomain (sE) (Zika virus); assay: SEC-MALS
# [2] = biological target: Zika virus (ZIKV) soluble E ectodomain (sE) (Zika virus); assay: SEC-MALS; pH 8.0; isolated proteins sampled individually; Superdex 200
substance,measurement,setting,value
Zika virus (ZIKV) soluble E ectodomain (sE) (domain or fragment),stoichiometry N,[1],2
same,stoichiometry N,[2],2
